Results: patent US20100093618A1 (published 2010)
Residue numbers refer to the chain shown, from its start.

T1: [35S]methionine-labeled IκB-α 1-263 (in vitro translated) (UniProt P25963 1-263, [35S]methionine label)
T1 construct: Translated in vitro from pcDNA3
T1 sequence (looked up): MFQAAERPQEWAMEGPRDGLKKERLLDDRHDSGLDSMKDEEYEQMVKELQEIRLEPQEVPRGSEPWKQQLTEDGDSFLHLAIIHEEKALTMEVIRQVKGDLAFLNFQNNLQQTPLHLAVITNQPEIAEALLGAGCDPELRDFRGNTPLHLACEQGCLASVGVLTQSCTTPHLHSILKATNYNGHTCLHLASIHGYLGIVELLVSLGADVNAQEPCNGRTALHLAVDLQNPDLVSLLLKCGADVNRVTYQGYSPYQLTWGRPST

T2: p105 (in vitro translated) (human, UniProt P19838 1-968)
T2 sequence: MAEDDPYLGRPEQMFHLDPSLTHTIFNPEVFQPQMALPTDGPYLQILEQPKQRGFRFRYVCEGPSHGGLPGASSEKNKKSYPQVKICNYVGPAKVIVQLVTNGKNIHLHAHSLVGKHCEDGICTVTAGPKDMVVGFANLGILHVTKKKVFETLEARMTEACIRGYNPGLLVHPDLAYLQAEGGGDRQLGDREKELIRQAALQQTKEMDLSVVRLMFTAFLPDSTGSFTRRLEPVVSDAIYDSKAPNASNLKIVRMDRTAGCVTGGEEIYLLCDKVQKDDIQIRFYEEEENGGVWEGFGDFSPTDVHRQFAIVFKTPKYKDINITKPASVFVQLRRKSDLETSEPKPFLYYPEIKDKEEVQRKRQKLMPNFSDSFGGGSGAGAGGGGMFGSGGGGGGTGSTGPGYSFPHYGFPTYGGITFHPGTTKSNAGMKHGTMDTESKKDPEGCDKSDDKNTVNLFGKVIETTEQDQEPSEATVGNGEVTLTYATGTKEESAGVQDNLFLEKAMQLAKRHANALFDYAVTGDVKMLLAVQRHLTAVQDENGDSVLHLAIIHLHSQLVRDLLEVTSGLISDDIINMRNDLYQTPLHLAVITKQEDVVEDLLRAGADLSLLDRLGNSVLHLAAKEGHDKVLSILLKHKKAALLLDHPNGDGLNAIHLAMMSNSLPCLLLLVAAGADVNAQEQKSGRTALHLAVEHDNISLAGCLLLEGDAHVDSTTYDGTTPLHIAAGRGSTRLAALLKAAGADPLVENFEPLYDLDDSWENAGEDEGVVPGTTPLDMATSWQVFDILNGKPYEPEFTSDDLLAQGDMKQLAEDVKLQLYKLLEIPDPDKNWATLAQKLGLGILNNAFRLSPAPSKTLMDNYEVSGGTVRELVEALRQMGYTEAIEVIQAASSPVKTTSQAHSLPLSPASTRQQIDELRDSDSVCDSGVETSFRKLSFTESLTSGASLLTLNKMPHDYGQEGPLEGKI

T3: FLAG-p100 (in vitro translated) (human, UniProt Q00653 1-900)
T3 sequence: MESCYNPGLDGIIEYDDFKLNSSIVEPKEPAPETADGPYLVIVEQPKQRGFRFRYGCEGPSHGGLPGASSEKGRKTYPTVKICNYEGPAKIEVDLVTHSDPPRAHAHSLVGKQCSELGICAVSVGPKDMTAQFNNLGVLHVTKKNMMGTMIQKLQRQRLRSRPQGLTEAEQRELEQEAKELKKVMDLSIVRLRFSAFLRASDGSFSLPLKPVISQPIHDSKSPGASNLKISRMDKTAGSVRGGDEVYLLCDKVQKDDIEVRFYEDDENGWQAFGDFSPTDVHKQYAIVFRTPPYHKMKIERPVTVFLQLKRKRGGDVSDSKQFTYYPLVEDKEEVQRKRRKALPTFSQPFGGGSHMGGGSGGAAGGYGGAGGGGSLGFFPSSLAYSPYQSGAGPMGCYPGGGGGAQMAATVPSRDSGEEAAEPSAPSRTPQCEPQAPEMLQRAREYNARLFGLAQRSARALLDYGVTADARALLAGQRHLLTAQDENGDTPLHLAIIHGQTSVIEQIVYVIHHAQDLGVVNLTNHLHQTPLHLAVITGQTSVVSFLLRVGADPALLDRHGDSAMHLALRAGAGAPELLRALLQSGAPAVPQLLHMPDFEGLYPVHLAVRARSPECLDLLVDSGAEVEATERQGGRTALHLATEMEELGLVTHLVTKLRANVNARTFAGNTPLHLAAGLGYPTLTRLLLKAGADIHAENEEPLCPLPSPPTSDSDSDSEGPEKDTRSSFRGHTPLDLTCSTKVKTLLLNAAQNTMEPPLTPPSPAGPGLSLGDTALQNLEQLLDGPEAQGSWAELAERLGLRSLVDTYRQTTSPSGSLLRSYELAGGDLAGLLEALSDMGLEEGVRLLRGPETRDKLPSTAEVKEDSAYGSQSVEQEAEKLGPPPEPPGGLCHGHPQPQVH

T4: GST-IκB-α (UniProt P25963 1-317)
T4 construct: also called pGEX-2T-IκB-α product; not shown: glutathione S-transferase (GST) encoded by pGEX-2T
T4 sequence: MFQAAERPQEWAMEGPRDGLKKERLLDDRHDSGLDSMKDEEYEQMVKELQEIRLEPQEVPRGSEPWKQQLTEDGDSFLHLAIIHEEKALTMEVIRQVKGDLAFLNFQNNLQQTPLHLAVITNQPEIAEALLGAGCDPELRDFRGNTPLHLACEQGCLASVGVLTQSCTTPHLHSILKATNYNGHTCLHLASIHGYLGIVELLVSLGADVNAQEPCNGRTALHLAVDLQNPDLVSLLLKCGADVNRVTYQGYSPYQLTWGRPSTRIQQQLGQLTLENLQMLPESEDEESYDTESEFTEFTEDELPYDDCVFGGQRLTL

B1: [35S]methionine-labeled IκB-α 72-287 (in vitro translated) (other)
chain: EDGDSFLHLAIIHEEKALTMEVIRQVKGDLAFLNFQNNLQQTPLHLAVITNQPEIAEALLGAGCDPELRDFRGNTPLHLACEQGCLASVGVLTQSCTTPHLHSILKATNYNGHTCLHLASIHGYLGIVELLVSLGADVNAQEPCNGRTALHLAVDLQNPDLVSLLLKCGADVNRVTYQGYSPYQLTWGRPSTRIQQQLGQLTLENLQMLPESEDEE
modifications: [35S]methionine label
B2: [35S]methionine-labeled IκB-α 72-287 L(272,274,277)A (in vitro translated) (other, UniProt P25963 72-287, looked up)
chain: B1 chain with L201A, L203A, L206A
modifications: [35S]methionine label
notes: range 72-287
B3: GST-Tat (other)
chain: MEPVDPRLEPWKHPGSQPKTACTNCYCKKCCFHCQVCFITKALGISYGRKKRRQRRRAHQNSQTHQASLSKQPTSQPRGDPTGPKE
notes: also called GST-Tat fusion protein from pGEX-2T-Tat; not shown: glutathione S-transferase (GST) encoded by pGEX-2T
B4: FLAG-Tat (p3XFLAG-CMV-Tat, wild type) (other)
chain: B3 chain
notes: Expressed in transfected HeLa cells (or MEFs); also called wild type Tat
B5: FLAG-Tat R(49-57)A (p3XFLAG-CMV-Tat R(49-57)A) (other)
chain: B3 chain with R49A, R52A, R53A, R55A, R56A, R57A
B6: FLAG-Tat C(22,25,27)A (p3XFLAG-CMV-Tat C(22,25,27)A) (other)
chain: B3 chain with C22A, C25A, C27A
notes: Expressed in transfected HeLa cells
B7: [35S]methionine-labeled IκB-α 243-317 (in vitro translated) (other, UniProt P25963 243-317, looked up)
chain: VNRVTYQGYSPYQLTWGRPSTRIQQQLGQLTLENLQMLPESEDEESYDTESEFTEFTEDELPYDDCVFGGQRLTL
modifications: [35S]methionine label
notes: Translated in vitro from pcDNA3
B8: [35S]methionine-labeled IκB-α 120-317 (in vitro translated) (other, UniProt P25963 120-317, looked up)
chain: ITNQPEIAEALLGAGCDPELRDFRGNTPLHLACEQGCLASVGVLTQSCTTPHLHSILKATNYNGHTCLHLASIHGYLGIVELLVSLGADVNAQEPCNGRTALHLAVDLQNPDLVSLLLKCGADVNRVTYQGYSPYQLTWGRPSTRIQQQLGQLTLENLQMLPESEDEESYDTESEFTEFTEDELPYDDCVFGGQRLTL
modifications: [35S]methionine label
notes: as for B7

What was measured:
GST [1] = target: T5, GST (UniProt P08515 1-218 = GST); assay: GST pulldown of [35S]-labeled in vitro translated protein, autoradiography
T5 construct: Negative control in the pulldowns; also called GST protein; GST alone
T5 sequence (P08515 whole entry): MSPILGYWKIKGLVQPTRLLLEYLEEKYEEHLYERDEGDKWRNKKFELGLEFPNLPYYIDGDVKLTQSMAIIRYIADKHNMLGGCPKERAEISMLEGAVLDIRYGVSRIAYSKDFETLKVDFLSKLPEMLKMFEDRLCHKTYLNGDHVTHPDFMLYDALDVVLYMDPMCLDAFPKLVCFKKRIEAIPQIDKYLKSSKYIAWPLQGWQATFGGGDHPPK
Protocol: (§1) The pcDNA3 plasmids expressing the IκB genes under the T7 promoter were used as templates to translate in vitro the [³⁵S]methionine-labeled IκB proteins by using the TNT Quick Coupled transcription/translation systems (Promega). Aliquots (10 μl) of translation mixture were incubated with GST-Tat or GST proteins (10 μg) in 500 μl of binding buffer supplemented with 1 μg/μl of bovine serum albumin on a rocking platform for 3 h at room temperature.

[2] = target: T1, [35S]methionine-labeled IκB-α 1-263 (in …); assay: GST-Tat pulldown of [35S]-labeled in vitro translated protein, autoradiography
Protocol: as §1

[3] = target: T2, p105 (in vitro translated); assay: GST-Tat pulldown of in vitro translated protein, anti-p105 Western blot
Protocol: (§2) The proteins were resolved on 10% SDS-PAGE, transferred to polyvinylidene difluoride membranes, and analyzed by immunoblotting with the indicated antibodies. The pcDNA3 plasmids expressing the IκB genes under the T7 promoter were used as templates to translate in vitro the [³⁵S]methionine-labeled IκB proteins by using the TNT Quick Coupled transcription/translation systems (Promega). Aliquots (10 μl) of translation mixture were incubated with GST-Tat or GST proteins (10 μg) in 500 μl of binding buffer supplemented with 1 μg/μl of bovine serum albumin on a rocking platform for 3 h at room temperature.

[4] = target: T3, FLAG-p100 (in vitro translated); assay: GST-Tat pulldown of in vitro translated protein, anti-FLAG Western blot
Protocol: as §2

GST [5] = target: T5, GST; assay: GST pulldown from extracts of transfected HeLa cells, anti-FLAG Western blot
GST-IκB-α = target: T4, GST-IκB-α; assay: GST-IκB-α pulldown from extracts of transfected HeLa cells, anti-FLAG Western blot

Row | Binder | binding result (GST [1]) | binding result (GST [5]) | further results
1 | B1 | no binding |  | 
2 | B2 | no binding |  | 
3 | B3 |  |  | binding result [2]: no binding; binding result [3]: no binding; binding result [4]: no binding
4 | B4 |  | no binding | 
5 | B5 |  | no binding | binding result (GST-IκB-α): no binding
6 | B6 |  | no binding | 
7 | B7 | no binding |  | 
8 | B8 | no binding |  | 
